Molecular target: GST-tagged AKT1 (UniProt P31749 1-480)
Assay: pull-down

GST-tagged AKT1, sequence (P31749 whole entry): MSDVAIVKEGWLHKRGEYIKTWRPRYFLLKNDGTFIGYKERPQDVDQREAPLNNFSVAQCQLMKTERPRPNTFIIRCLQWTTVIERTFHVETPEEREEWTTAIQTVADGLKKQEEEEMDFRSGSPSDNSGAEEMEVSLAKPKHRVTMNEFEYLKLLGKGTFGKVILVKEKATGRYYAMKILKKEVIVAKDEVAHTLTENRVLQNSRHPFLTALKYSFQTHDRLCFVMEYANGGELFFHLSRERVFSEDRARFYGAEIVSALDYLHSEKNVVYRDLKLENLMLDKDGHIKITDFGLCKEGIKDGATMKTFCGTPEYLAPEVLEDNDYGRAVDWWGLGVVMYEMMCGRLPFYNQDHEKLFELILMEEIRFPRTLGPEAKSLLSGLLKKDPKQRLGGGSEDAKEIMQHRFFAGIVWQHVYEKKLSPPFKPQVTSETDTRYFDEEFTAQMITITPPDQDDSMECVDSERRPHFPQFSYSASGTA

- binding result: binds
B1: His-tagged SFN (natural protein, UniProt P31947 1-248, looked up)
chain: MERASLIQKAKLAEQAERYEDMAAFMKGAVEKGEELSCEERNLLSVAYKNVVGGQRAAWRVLSSIEQKSNEEGSEEKGPEVREYREKVETELQGVCDTVLGLLDSHLIKEAGDAESRVFYLKMKGDYYRYLAEVATGDDKKRIIDSARSAYQEAMDISKKEMPPTNPIRLGLALNFSVFHYEIANSPEEAISLAKTTFDEAMADLHTLSEDSYKDSTLIMQLLRDNLTLWTADNAGEEGGEAPQEPQS
